Experimental findings from patent US20240117018A1 are described below.

What all share (assay): cell-based or functional assay
For assay [1], the target named is HIV-1 Env of pseudovirus X1632_S2_B10 (HIV-1).
The target of assay [2] is HIV-1 Env of pseudovirus 6041.v3.c23 (HIV-1).
In assay [3] the target is HIV-1 Env of pseudovirus X1193_c1 (HIV-1).
For assay [4], the target named is HIV-1 Env of pseudovirus 0260.v5.c36 (HIV-1).
Assay [5] has as its target HIV-1 Env of pseudovirus X2088_c9 (HIV-1).
The target of assay [6] is HIV-1 Env of pseudovirus C1080.c03 (HIV-1).
In assay [7] the target is HIV-1 Env of pseudovirus 3365.v2.c2 (HIV-1).
Assay [8] addresses HIV-1 Env of pseudovirus T278-50 (HIV-1).
Assay [9] has as its target HIV-1 Env of pseudovirus BJOX009000.02.4 (HIV-1).
The target in assay [10] is HIV-1 Env of pseudovirus T250-4 (HIV-1).
The target of assay [11] is HIV-1 Env of pseudovirus CNE8 (HIV-1).
The target in assay [12] is HIV-1 Env of pseudovirus 191084 B7-19 (HIV-1).

For N49P9 (antibody), the neutralization IC50 was found to be 46.7 µg/mL in assay [1]; 0.089 µg/mL in assay [2]; 0.025 µg/mL in [3]; 0.466 µg/mL in assay [4]; 0.07 µg/mL in [5]; 0.119 µg/mL in assay [6]. In addition, the neutralization IC50 is 0.059 µg/mL in assay [7]; > 50 µg/mL in assay [8]; 0.727 µg/mL in [9]; > 50 µg/mL in assay [10]; 0.056 µg/mL in assay [11]; 0.042 µg/mL in assay [12]. Moreover, the neutralization IC80 is > 50 µg/mL in [1]; 0.777 µg/mL in assay [2]; 0.081 µg/mL in [3]; 1.85 µg/mL in assay [4]; 0.252 µg/mL in assay [5]; 0.575 µg/mL in assay [6]. In addition, the neutralization IC80 is 0.198 µg/mL in [7]; > 50 µg/mL in assay [8]; 3.29 µg/mL in assay [9]; > 50 µg/mL in assay [10]; 0.26 µg/mL in [11]; 0.129 µg/mL in [12]. Besides, the neutralization MPI was found to be 51 in assay [1]; 95 in assay [2]; 100 in assay [3]; 100 in assay [4]; 100 in assay [5]; 100 in assay [6]. The neutralization MPI in assay [7] came out at 100; in [8], 25; in [9], 100; in [10], 25; in [11], 100; in assay [12] it was 100.

Consider N49P9.1 (antibody), for which the neutralization IC50 in assay [1] was > 50 µg/mL; in [2], 0.282 µg/mL; in [3], 0.042 µg/mL; in [4], 0.519 µg/mL; in assay [5], 0.091 µg/mL; in [6] it was 0.156 µg/mL. Further, the neutralization IC50 in [7] was 0.055 µg/mL; in assay [8] it was > 50 µg/mL; in assay [9], 0.965 µg/mL; in assay [10], > 50 µg/mL; in assay [11], 0.228 µg/mL; in [12], 0.097 µg/mL. Also, the neutralization IC80 in assay [1] was > 50 µg/mL; in assay [2], 6.78 µg/mL; in [3], 0.15 µg/mL; in assay [4] it was 0.151 µg/mL; in assay [5] it was 0.392 µg/mL; in [6], 0.939 µg/mL. For the same substance, the neutralization IC80 in [7] is 0.725 µg/mL; in [8], > 50 µg/mL; in [9], 3.93 µg/mL; in assay [10], > 50 µg/mL; in [11], 0.921 µg/mL; in [12], 0.259 µg/mL. The neutralization MPI in assay [1] is 10; in assay [2] it was 90; in [3], 100; in assay [4] it was 100; in assay [5] it was 100; in assay [6] it was 100. Besides, the neutralization MPI is 100 in [7]; 5 in assay [8]; 100 in assay [9]; 7 in assay [10]; 100 in assay [11]; 100 in assay [12].

Consider 10E8 (antibody), for which the IC50 neutralization (TZM.bl) was 1.98 µg/mL in assay [1]; 2.33 µg/mL in assay [2]; 0.497 µg/mL in assay [3]; > 10 µg/mL in assay [5]; 0.061 µg/mL in assay [6]; 0.949 µg/mL in [8]. Further, the IC50 neutralization (TZM.bl) in assay [9] is 1.57 µg/mL. Also, the IC80 neutralization (TZM.bl) in assay [1] was 9.68 µg/mL; in assay [2], 9.77 µg/mL; in assay [3] it was 4.2 µg/mL; in assay [5], > 10 µg/mL; in [6], 0.731 µg/mL; in assay [8], 7.46 µg/mL. The substance also came in with an IC80 neutralization (TZM.bl) in assay [9] of 9.95 µg/mL.

Turning to PG16 (antibody), the IC50 neutralization (TZM.bl) in [1] was 0.012 µg/mL; in assay [2], 0.048 µg/mL; in assay [3], 0.018 µg/mL; in assay [5], > 50 µg/mL; in assay [6], 0.001 µg/mL; in assay [8], 0.227 µg/mL. The IC50 neutralization (TZM.bl) in assay [9] was determined as 1.19 µg/mL. In addition, the IC80 neutralization (TZM.bl) in assay [1] is 0.076 µg/mL; in [2], 0.256 µg/mL; in assay [3], 0.11 µg/mL; in [5], > 50 µg/mL; in assay [6], 0.003 µg/mL; in assay [8], 18.6 µg/mL. Besides, the IC80 neutralization (TZM.bl) in assay [9] stood at 22.1 µg/mL.

For PG9 (antibody), the IC50 neutralization (TZM.bl) in assay [1] was 0.107 µg/mL; in assay [2], 0.244 µg/mL; in [3], 0.105 µg/mL; in assay [5], > 50 µg/mL; in [6] it was 0.004 µg/mL; in assay [8], 0.393 µg/mL. In addition, the IC50 neutralization (TZM.bl) in assay [9] stood at 1.73 µg/mL. The IC80 neutralization (TZM.bl) was 0.934 µg/mL in assay [1]; 3.64 µg/mL in assay [2]; 0.304 µg/mL in assay [3]; > 50 µg/mL in [5]; 0.013 µg/mL in [6]; 3.19 µg/mL in [8]. The IC80 neutralization (TZM.bl) in assay [9] came to 8.21 µg/mL.

Turning to 10-1074 (antibody), the IC50 neutralization (TZM.bl) in [1] is > 50 µg/mL; in [2], > 50 µg/mL; in assay [3] it was 0.083 µg/mL; in assay [5], 0.003 µg/mL; in [6] it was > 50 µg/mL; in assay [8], 2.15 µg/mL. Moreover, the IC50 neutralization (TZM.bl) in [9] and in assay [11] was > 50 µg/mL each time. Also, the IC80 neutralization (TZM.bl) in assay [1] is > 50 µg/mL; in [2], > 50 µg/mL; in [3], 0.475 µg/mL; in assay [5] it was 0.014 µg/mL; in assay [6], > 50 µg/mL; in assay [8], 18.3 µg/mL. In addition, the IC80 neutralization (TZM.bl) in assay [9] and in assay [11] was > 50 µg/mL throughout.
